Assay results as given in IntAct's records for PubMed 18626018.

B1: CREB-regulated transcription coactivator 2 (Mus musculus), Q3U182 (parent)
chain: MATSGANGPGSATASASNPRKFSEKIALQKQRQAEETAAFEEVMMDIGSTRLQAQKLRLAYTRSSHYGGSLPNVNQIGCGLAEFQSPLHSPLDSSRSTRHHGLVERVQRDARRMVSPLRRYPRHIDSSPYSPAYLSPPPESGWRRMMPWGNLPAEKGQLFRLPSALNRTSSDSALHTSVMNPNPQDTYPGPTPPSVLPSRRGGGFLDGEMDAKVPAIEENVVDDKHLLKPWDAKKLSSSSSRPRSCEVPGINIFPSPDQPANVPVLPPAMNTGGSLPDLTNLHFPPPLPTPLDPEETVYPSLSGGNSTTNLTHTMTHLGISGGLGLGPSYDVPGLHSPLSHPSLQSSLSNPNLQASLSSPQPQLQGSHSHPSLPASSLAHHALPTTSLGHPSLSAPALSSSSSSSSTSSPVLSAPPYPASTPGASPRHRRVPLSPLSLPAGPADARRSQQQLPKQFSPTMSPTLSSITQGVPLDTSKLPTDQRLPPYPYSPPSLVIPTHPPTPKSLQQLPSQACLVQPSGGQPPGRQPHYGALYPPGSSGHGQQPYHRPINDFSLGNLEQFNMESPSTSLVLDPPAFSEGPGFLGSEGSMSGPQDPHVLNHQNLTHCSRHGSGPNIILTGDSSPGFSKEIAAALAGVPGFEVSASGLELGLGLEDELRMEPLGLEGLTMLSDPCALLPDPAVEDSFRSDRLQ

Assays:
[1] = variants of: B1; settings: with 1433b_human YWHAB
[2] = variants of: B1; settings: with mark2_human MARK2, Q7KZI7
mark2_human MARK2, Q7KZI7, sequence (Q7KZI7 whole entry): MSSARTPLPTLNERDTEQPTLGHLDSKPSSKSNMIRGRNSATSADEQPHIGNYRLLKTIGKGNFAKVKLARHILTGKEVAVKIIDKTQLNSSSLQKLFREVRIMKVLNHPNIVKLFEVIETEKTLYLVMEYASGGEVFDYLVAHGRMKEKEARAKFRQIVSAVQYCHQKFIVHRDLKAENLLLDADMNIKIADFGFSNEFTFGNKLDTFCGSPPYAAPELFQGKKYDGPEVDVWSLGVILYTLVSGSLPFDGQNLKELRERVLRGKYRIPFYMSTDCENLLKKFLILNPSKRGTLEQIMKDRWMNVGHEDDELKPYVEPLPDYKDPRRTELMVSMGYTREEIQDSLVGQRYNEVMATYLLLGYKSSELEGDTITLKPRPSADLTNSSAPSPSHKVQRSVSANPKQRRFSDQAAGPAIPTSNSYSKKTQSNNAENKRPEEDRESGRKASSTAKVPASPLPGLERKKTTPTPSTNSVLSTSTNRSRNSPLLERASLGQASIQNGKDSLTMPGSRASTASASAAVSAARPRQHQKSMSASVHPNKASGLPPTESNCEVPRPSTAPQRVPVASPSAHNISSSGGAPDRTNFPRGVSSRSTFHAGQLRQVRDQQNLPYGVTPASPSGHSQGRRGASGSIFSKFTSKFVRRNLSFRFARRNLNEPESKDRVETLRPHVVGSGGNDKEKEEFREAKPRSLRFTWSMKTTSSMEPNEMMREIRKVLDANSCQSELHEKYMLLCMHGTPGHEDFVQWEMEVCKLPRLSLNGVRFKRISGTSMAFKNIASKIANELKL

[3] = variants of: B1; settings: with aapk1_human PRKAA1, Q13131
aapk1_human PRKAA1, Q13131, sequence (Q13131 whole entry, looked up): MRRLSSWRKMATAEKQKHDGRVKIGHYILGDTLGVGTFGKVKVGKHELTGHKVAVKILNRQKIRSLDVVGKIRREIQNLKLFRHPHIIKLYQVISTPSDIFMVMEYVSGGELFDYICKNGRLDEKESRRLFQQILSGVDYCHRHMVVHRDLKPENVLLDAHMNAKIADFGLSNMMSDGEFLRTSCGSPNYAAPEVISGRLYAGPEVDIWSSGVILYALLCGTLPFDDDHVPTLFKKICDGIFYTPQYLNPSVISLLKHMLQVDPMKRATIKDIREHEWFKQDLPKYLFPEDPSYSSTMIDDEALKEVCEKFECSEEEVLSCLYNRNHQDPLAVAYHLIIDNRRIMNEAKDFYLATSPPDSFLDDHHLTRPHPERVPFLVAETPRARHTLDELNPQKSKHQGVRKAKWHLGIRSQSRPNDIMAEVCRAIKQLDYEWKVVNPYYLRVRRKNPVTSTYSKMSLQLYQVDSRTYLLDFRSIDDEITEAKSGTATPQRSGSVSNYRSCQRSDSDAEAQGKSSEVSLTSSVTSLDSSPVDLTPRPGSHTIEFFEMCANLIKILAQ

[4] = variants of: B1; settings: with mark3_human MARK3, P27448
mark3_human MARK3, P27448, sequence (P27448 whole entry, looked up): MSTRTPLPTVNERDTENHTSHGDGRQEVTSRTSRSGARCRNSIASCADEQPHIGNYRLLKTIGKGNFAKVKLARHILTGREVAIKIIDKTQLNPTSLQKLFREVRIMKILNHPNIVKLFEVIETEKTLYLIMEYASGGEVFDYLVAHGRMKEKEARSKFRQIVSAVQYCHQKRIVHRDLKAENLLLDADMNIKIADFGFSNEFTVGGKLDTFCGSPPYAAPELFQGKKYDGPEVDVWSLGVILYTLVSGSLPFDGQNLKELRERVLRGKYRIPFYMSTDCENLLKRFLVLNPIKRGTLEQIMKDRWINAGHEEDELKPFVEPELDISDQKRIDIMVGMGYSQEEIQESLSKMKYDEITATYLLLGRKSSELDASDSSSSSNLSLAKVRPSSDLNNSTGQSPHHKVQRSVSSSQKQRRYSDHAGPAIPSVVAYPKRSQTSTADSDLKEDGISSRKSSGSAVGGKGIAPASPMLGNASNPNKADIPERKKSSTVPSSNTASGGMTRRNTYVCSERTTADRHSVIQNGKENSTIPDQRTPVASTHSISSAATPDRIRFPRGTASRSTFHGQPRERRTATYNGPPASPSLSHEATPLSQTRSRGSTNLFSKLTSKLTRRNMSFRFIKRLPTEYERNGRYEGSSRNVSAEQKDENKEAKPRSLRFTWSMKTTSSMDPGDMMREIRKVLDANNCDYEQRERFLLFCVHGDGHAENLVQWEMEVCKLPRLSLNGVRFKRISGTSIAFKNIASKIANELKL

Row | Variant | effect of a mutation on the interaction [1] | effect of a mutation on the interaction [2] | effect of a mutation on the interaction [3] | effect of a mutation on the interaction [4]
1 | S171A | disrupting interaction | disrupting interaction | disrupting interaction | disrupting interaction
2 | S275A | – | disrupting interaction | disrupting interaction | disrupting interaction
3 | S171A;S275A | disrupting interaction | – | – | –
